Test results: US20240139295A1 (priority 2021, published 2024)

B1: LysP53: lysin from the genome of bacteriophage P53, amino acid sequence SEQ ID NO: 2, includes P104, about 24 kDa, expressed in E. coli (protein)
chain: MTMTTKRIFEHMRPNLTDSQVQALYKLMEKGADLDTIAQFAGVSPLVSTADVKQPSGFKFSQTSLKRLEGVNPKLVQVVNRALEISKEDFMVIEGVRTKESAWANWGKGRTAAQCQAAGVPTKYAQPSLAKVTWLTDPLKSKHMTGHAVDLAPIPLDWNDLKRFDLMAQAMFQASAELNIPIRWGADWDNDGVFREKGETDSPHFELAG

Tests used:
Gram-negative bacteria [1] = test: Activity comparison of P104 and LysP53 in vitro, overall; assay type: cell-based; details: stable phase, 37° C., 1 h
Method: (§1) A variety of strains including Acinetobacter baumannii, Pseudomonas aeruginosa, Klebsiella pneumoniae and Escherichia coli are cultured to stable phase (OD600nm between 1.2-1.4), respectively, and each precipitate is collected by centrifugation at 4° C., rinsed once with Tris-HCl buffer, and then the rinsed precipitate is dissolved in Tris-HCl buffer to obtain the bacterial solution. At the same time, mixed solutions including the same amount of the buffer and the above bacterial solution are prepared and used as the negative controls. After incubation at 37° C. for 1 h, the number (CFU) of the bacteria in the solutions are counted by plating on agar plates.

A. baumannii WHG40137 [2] = test: Lytic activity of LysP53 against A. baumannii WHG40137 at different growth periods (CFU plate count); assay type: cell-based, Acinetobacter baumannii; details: 100 μg/mL LysP53, 37° C., 1 h; logarithmic phase (OD600 0.4-0.6) vs stable phase (OD600 1.2-1.4)
Method: A. baumannii WHG40137 is cultured to logarithmic phase (OD600nm between 0.4-0.6) or stable phase (OD600nm between 1.2-1.4) first. Then, the precipitates are collected by centrifugation at 4° C., rinsed once with Tris-HCl buffer, and dissolved in Tris-HCL buffer to obtain an A. baumannii WHG40137 bacterial solution. Finally, the lysin LysP53 prepared in the embodiment 2 is taken and mixed with the A. baumannii WHG40137 bacterial solution to make the final concentration of the lysin LysP53 to be 100 μg/mL. At the same time, a mixed solution including the same amount of the buffer and the above bacterial solution is prepared and used as the negative control. After incubation at 37° C. for 1 h, the number (CFU) of the bacteria in the solutions are counted by plating on agar plates.

A. baumannii WHG40137 [3] = test: Lytic activity of LysP53 against A. baumannii WHG40137 on burned skin surfaces of mice; assay type: in vivo, Acinetobacter baumannii; details: female BALB/c mice, burn site infected 24 h, 14 μg LysP53 topical vs 4 grams (g) minocycline, 4 h after treatment
Method: Female BALB/c mice aged 6-8 weeks are anesthetized by intraperitoneal injection of 40 milligrams per kilogram (mg/kg) pentobarbital (also referred to as pentobarbitone), and then shaved with an electric razor to remove 2 square centimeters (cm 2) of hair on the back. Partial burn can be achieved by exposing the naked skin to water at 65° C. for 12 s. 10 μL, of A. baumannii WHG40137 with a concentration of 10^8 CFU/mL is taken and inoculated at the burn site, and after colonization for 24 h, the mice are randomly divided into three groups. In the first group, there are 12 mice, and 14 μg of the lysin LysP53 is applied to the burn site of each mouse. In the second group, there are 12 mice, and 4 grams (g) minocycline is applied to the burn site of each mouse. In the third group, there are 9 mice, and the same amount of buffer solution is applied to the burn site of each mouse. Four hours after treatment, the mice are euthanatized and the infected skin is excised, infiltrated with 1 mL of phosphate buffered saline with Tween® 20 (PBST) and 0.1% Triton X-100 for 2 min, and homogenized with a tissue cell disruptor (NewZongKe, Wuhan, China). Finally, an aliquot of the suspension is diluted and plated to an LB plate containing 4 μg/mL of gentamicin and 2 μg/mL of meropenem, and the number of the colonies are counted after overnight culture.

Gram-negative bacteria [4] = test: Lysis spectrum of LysP53 in vitro, overall; assay type: cell-based; details: 100 μg/mL LysP53, stable phase, 37° C., 1 h
Method: (§2) A variety of strains including Acinetobacter baumannii, Pseudomonas aeruginosa, Klebsiella pneumoniae and Escherichia coli are cultured to stable phase (OD600nm between 1.2-1.4), respectively, and each precipitate is collected by centrifugation at 4° C., rinsed once with Tris-HCl buffer, and then the rinsed precipitate is dissolved in Tris-HCl buffer to obtain the bacterial solution. The lysin LysP53 prepared in the embodiment 2 is taken and mixed with the above bacterial solutions, respectively, to make the final concentration of the lysin LysP53 to be 100 μg/mL. At the same time, mixed solutions including the same amount of the buffer and each of the above bacterial solutions are prepared and used as negative controls. After incubation at 37° C. for 1 h, the number (CFU) of the bacteria in the solutions are counted by plating on agar plates.

A. baumannii WHG40137 [5] = test: Time dependence of lysin LysP53 lysing A. baumannii WHG40137 (CFU plate count); assay type: cell-based, Acinetobacter baumannii; details: 100 μg/mL LysP53, logarithmic phase, 37° C.
Method: Acinetobacter baumannii (A. baumannii) WHG40137 is cultured to logarithmic phase (OD600nm between 0.4-0.6), and the precipitate is collected by low-temperature centrifugation, rinsed once with Tris-hydrochloride (Tris-HCl) buffer, and then the rinsed precipitate is dissolved in the buffer to obtain an A. baumannii WHG40137 bacterial solution. The lysin LysP53 prepared in the embodiment 2 is added in and mixed with the A. baumannii WHG40137 bacterial solution to make the final concentration of the lysin LysP53 to be 100 micrograms per milliliter (μg/mL). At the same time, a mixed solution including the same amount of the buffer and the above bacterial solution is prepared and used as negative control. During incubation of the solutions at 37° C., aliquots were sampled, respectively, at different times and used to count the number (colony-forming unit abbreviated as CFU) of the bacteria in the solutions by plating on agar plates.

Escherichia coli [6] = test: Activity comparison of P104 and LysP53 in vitro (CFU plate count); assay type: cell-based; details: stable phase, 37° C., 1 h
Method: as §1

Klebsiella pneumoniae [7] = test: as above; assay type: cell-based; details: stable phase, 37° C., 1 h
Method: as §1

Pseudomonas aeruginosa [8] = test: as above; assay type: cell-based; details: stable phase, 37° C., 1 h
Method: as §1

Acinetobacter baumannii [9] = test: as above; assay type: cell-based; details: stable phase, 37° C., 1 h
Method: as §1

Escherichia coli [10] = test: Lysis spectrum of LysP53 in vitro (CFU plate count); assay type: cell-based; details: 100 μg/mL LysP53, stable phase, 37° C., 1 h
Method: as §2

Klebsiella pneumoniae [11] = test: as above; assay type: cell-based; details: 100 μg/mL LysP53, stable phase, 37° C., 1 h
Method: as §2

Pseudomonas aeruginosa [12] = test: as above; assay type: cell-based; details: 100 μg/mL LysP53, stable phase, 37° C., 1 h
Method: as §2

Acinetobacter baumannii [13] = test: as above; assay type: cell-based; details: 100 μg/mL LysP53, stable phase, 37° C., 1 h
Method: as §2

A. baumannii WHG40137 [14] = test: Effect of EDTA concentration on lytic activity of LysP53 against A. baumannii WHG40137 (CFU plate count); assay type: cell-based, Acinetobacter baumannii; details: 100 μg/mL LysP53, stable phase, EDTA 0, 62.5, 125, 250, 500 μM, 37° C., 1 h
Method: A. baumannii WHG40137 is cultured to stable phase (OD600nm between 1.2-1.4), and the precipitate is collected by centrifugation at 4° C., rinsed once with a Tris-HCl buffer, and is dissolved in Tris-HCl buffer to obtain an A. baumannii WHG40137 bacterial solution. The lysin LysP53 prepared in the embodiment 2 is taken and mixed with the A. baumannii WHG40137 bacterial solution containing EDTA at different concentrations (0 μM, 62.5 μM, 125 μM, 250 μM, and 500 μM) to make the final concentration of the lysin LysP53 to be 100 μg/mL. At the same time, mixed solutions including the same amount of the Tris-HCl buffer solution and each of the above bacterial solutions are used as negative controls. After incubation at 37° C. for 1 h, the number (CFU) of the bacteria in the solutions are counted by plating on agar plates.

A. baumannii WHG40137 [15] = test: Effect of pH on lytic activity of LysP53 against A. baumannii WHG40137 (CFU plate count); assay type: cell-based, Acinetobacter baumannii; details: 100 μg/mL LysP53, logarithmic phase, 1 h
Method: A. baumannii WHG40137 is cultured to logarithmic phase (OD600nm between 0.4-0.6) first. Then, the precipitates are collected by centrifugation at 4° C., rinsed once with Tris-HCl buffer, and dissolved in Tris-HCL buffer with different pH values (pH 5-8) to obtain A. baumannii WHG40137 bacterial solutions. Finally, the lysin LysP53 prepared in the embodiment 2 is taken and mixed with the A. baumannii WHG40137 bacterial solutions to make the final concentration of the lysin LysP53 to be 100 μg/mL. At the same time, mixed solutions including the same amount of the buffer and the above bacterial solution are prepared and used as the negative controls. After incubation at 37° C. for 1 h, the number (CFU) of the bacteria in the solutions are counted by plating on agar plates.

Row | Molecule | lytic activity against Gram-negative bacteria (Gram-negative bacteria [1]) | lytic activity in logarithmic phase versus stable phase (A. baumannii WHG40137 [2]) | lytic activity on mouse skin compared with minocycline (A. baumannii WHG40137 [3]) | spectrum in lysing Gram-negative bacteria (Gram-negative bacteria [4]) | lytic activity against Acinetobacter baumannii WHG40137 (A. baumannii WHG40137 [5]) | concentration of Acinetobacter baumannii WHG40137 after incubation for 15 min (A. baumannii WHG40137 [5]; Tris-HCl buffer, 15 min) | concentration of Acinetobacter baumannii WHG40137 after incubation for 1 h (A. baumannii WHG40137 [5]; Tris-HCl buffer, 1 h) | activity against Escherichia coli, LysP53 compared with P104 (Escherichia coli [6]) | activity against Klebsiella pneumoniae, LysP53 compared with P104 (Klebsiella pneumoniae [7]) | activity against Pseudomonas aeruginosa, LysP53 compared with P104 (Pseudomonas aeruginosa [8]) | lytic activity against Acinetobacter baumannii, LysP53 compared with P104 (Acinetobacter baumannii [9]) | lytic effect on Escherichia coli (Escherichia coli [10]) | lytic effect on Klebsiella pneumoniae (Klebsiella pneumoniae [11]) | lytic effect on Pseudomonas aeruginosa (Pseudomonas aeruginosa [12]) | lytic effect on a variety of Acinetobacter baumannii strains (Acinetobacter baumannii [13]) | lytic activity with increasing EDTA concentration (A. baumannii WHG40137 [14]) | lytic activity in pH range 5.0-6.5 versus pH range 7.0-8.0 (A. baumannii WHG40137 [15]; 37° C.) | concentration of the bacteria after incubation with LysP53 at pH 5.0-6.5 (A. baumannii WHG40137 [15]; pH 5.0-6.5, 37° C.)
1 | P104: antibacterial peptide found in the genome of bacteriophage P53, amino acid sequence SEQ ID NO: 1, chemically synthesized (MTMTTKRIFEHMRPNLTDSQVQALYKLMEKGAD) | broad-spectrum lytic activity | – | – | – | – | – | – | – | – | – | – | – | – | – | – | – | – | –
2 | B1 | broad-spectrum lytic activity | higher lytic activity | higher lytic activity | broad spectrum | good lytic activity | greatly reduced | about 10 CFU/mL | comparable activity | comparable activity | comparable activity | stronger lytic activity | good lytic effect | good lytic effect | good lytic effect | good lytic effect | gradually higher | better lytic activity | about 10 CFU/mL
